Test in all cases: scFv ELISA on coated domain, anti-HA-HRP, OD450
For experiment [1], the target named is T1, FZD (human, UniProt Q01973).
T1 construct: frizzled domain, His tag; also called Frizzled domain; human ROR1-frizzled domain
The protocol: (§1) Thereafter, the plate was treated with each scFv and reacted for 2 hours, followed by washing four times using PBST and distilled water. After binding at room temperature for 1 hour using an HRP-conjugated anti-HA antibody (Roche, 12013819001, Anti-HA-Peroxidase, High Affinity) capable of binding to the HA tag, washing was performed six times using PBST and distilled water. After color development by adding TMB substrate solution (Thermo Scientific, 34029, 1-Step™ Ultra TMB-ELISA Substrate Solution), the color reaction was stopped with stop solution (Invitrogen, SS04, ELISA Stop Solution), and the absorbance was measured at OD 450 nm. The scFv binding to each domain was analyzed through ELISA.

Experiment [2] has as its target T2, Ig-like (human, UniProt Q01973).
T2 construct: Ig-like domain, His tag; also called Ig-like domain; human ROR1-immunoglobulin domain
As for the experimental part: as §1

The target of experiment [3] is T3, FZD+KRD (human, UniProt Q01973).
T3 construct: frizzled plus kringle domains, His tag; also called FK domain; human ROR1-frizzled-kringle domain
The protocol:
as §1

Substitutions are numbered along the chain they refer to.

T2 sequence (Q01973 39-151 limits assumed): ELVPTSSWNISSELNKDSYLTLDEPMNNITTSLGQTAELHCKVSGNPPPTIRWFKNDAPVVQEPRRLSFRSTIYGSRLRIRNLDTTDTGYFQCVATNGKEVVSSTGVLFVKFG
T1 sequence (Q01973 165-305 limits assumed): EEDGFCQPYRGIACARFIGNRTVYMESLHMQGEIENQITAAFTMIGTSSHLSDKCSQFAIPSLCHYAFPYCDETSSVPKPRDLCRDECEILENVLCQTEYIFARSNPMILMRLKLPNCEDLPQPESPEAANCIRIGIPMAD
T3 sequence (Q01973 165-395 limits assumed): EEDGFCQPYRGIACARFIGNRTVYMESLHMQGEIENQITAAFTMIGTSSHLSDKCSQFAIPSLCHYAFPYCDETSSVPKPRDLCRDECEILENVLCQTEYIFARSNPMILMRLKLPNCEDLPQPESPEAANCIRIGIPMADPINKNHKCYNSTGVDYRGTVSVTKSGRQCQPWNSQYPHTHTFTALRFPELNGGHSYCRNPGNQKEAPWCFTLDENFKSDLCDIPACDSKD

B1: P015006 scFv (scFv, V domains shown)
VH: EVQLLESGGGLVQPGGSLRLSCAASGFTFSNYSMSWVRQAPGKGLEWVSAISHGSGSIYYADSVKGRFTISRDNSKNTLYLQMNSLRAEDTAVYYCAKPISAWSHIRMSYAYGMDVWGQGTLVTVSS
VL: QSVLTQPPSASGTPGQRVTISCTGSSSNIGSNYVSWYRQLPGTAPKLLIYSDSNRPSGVPDRFSGSKSGTSASLAISGLRSEDEADYYCATWDASLSAYVFGGGTKLTVL
notes: HA-tagged scFv
In the case of B1, the values for the binding result in experiment [1] and in experiment [2] were “binds” and “no binding”, respectively.

B2: P015009 scFv (scFv, V domains shown)
VH: EVQLLESGGGLVQPGGSLRLSCAASGFTFSNYSMSWVRQAPGKGLEWVSGIYSGNSNTYYADSVKGRFTISRDNSKNTLYLQMNSLRAEDTAVYYCAKDSRATHHRWHYYDNAMDVWGQGTLVTVSS
VL: B1 VL with A90G, A94S, A98G
notes: HA-tagged scFv
On to B2, for which the binding result in experiment [1] is listed as “binds”; in experiment [2], “no binding”.

B3: P015003 scFv (scFv, V domains shown)
VH: EVQLLESGGGLVQPGGSLRLSCAASGFTFSSYAMSWVRQAPGKGLEWVSGISPGGSSKYYADSVKGRFTISRDNSKNTLYLQMNSLRAEDTAVYYCARGPHRAIDTAFDYWGQGTLVTVSS
VL: B1 VL
notes: HA-tagged scFv
As for B3, in experiment [2], the binding result is given as “no binding”.

B4: P015039 scFv (scFv, V domains shown)
VH: EVQLLESGGGLVQPGGSLRLSCAASGFTFSDYAMSWVRQAPGKGLEWVSWISPGGGNTYYADSVKGRFTISRDNSKNTLYLQMNSLRAEDTAVYYCAKGALMCLSATCSSDYGMDVWGQGTLVTVSS
VL: B1 VL with S31N, Y33A, R38Q, S53N, N54Q, A90G, A94Y, S97N, A98G
notes: HA-tagged scFv
For the molecule B4, the results for the binding result in experiment [2] and in experiment [3] were “binds” and “no binding”, respectively.

B5: P015013 scFv (scFv, V domains shown)
VH: EVQLLESGGGLVQPGGSLRLSCAASGFTFSSYDMSWVRQVPGKGLEWVSWISHGGGSIYYADSVKGRFTISRDNSKNTLYLQMNSLRAEDTAVYYCARDLSNRLFTGFDYWGQGTLVAVSS
VL: B1 VL with T23S, Y33S, S35Y, R38Q, L47P, N54H, A90G, A94Y, S97N
notes: HA-tagged scFv
For the molecule B5, the binding result in experiment [1] is recorded as “binds”; in experiment [2], “no binding”.

B6: P015001 scFv (scFv, V domains shown)
VH: EVQLLESGGGLAQPGGSLRLSCAASGFTFSNYDMSWVRQAPGKGPEWVSGIYSGNSNTYYADSVKGRFTISRDNSKNTLYLQMNSLRAEDTAVYYCARDLQYTEWAGFDYWGQGTLVTVSS
VL: B1 VL with T23S, Y33D, S35T, R38Q, S51D, N54K, T91A, A94D, A98G
notes: scFv of a phage-library clone from a bacterial extract, with HA tag
For B6, the binding result in experiment [1] is “no binding”.

B7: P015011 scFv (scFv, V domains shown)
VH: EVQLLESGGGLVQPGGSLRLSCAASGFTFSNYAMSWVRQAPGKGLEWVSGISPDGGSIYYADSVKGRFTISRDNSKNTLYLQMNSLRAEDTAVYYCAKAARLSPSMNYSYAYGMDVWGQGTLVTVSS
VL: B1 VL with S31N, R38Q, N54H, A90G, A94Y, S97N, A98G
notes: HA-tagged scFv
Consider B7, for which the binding result in experiment [1] is given as “no binding”.

B8: P015021 scFv (scFv, V domains shown)
VH: EVQLLESGGGLVQPGGSLRLSCAASGFTFSSYAMSWVRQAPGKGLEWVSWISPGGGNIYYADSVKGRFTISRDNSKNTLYLQMNSLRAEDTAVYYCARSQSGFDYWGQGTLVTVSS
VL: QSVLTQPPSASGTPGQRVTISCSGSSSNIGNNSVTWYQQLPGTAPKLLIYYDSHRPSGVPDRFSGSKSGTSASLAISGLRSEDEADYYCGAWDSSLNGYVFGGGTKLTVL
notes: HA-tagged scFv
On to B8, for which the binding result in experiment [2] is “no binding”.

B9: P015014 scFv (scFv, V domains shown)
VH: EVQLLESGGGLVQPGGSLRLSCAVSGFTFSSYSMSWVRQAPGKGLEWVSAISPGDSNKYYADSVKGRFTISRDNSKNTLYLQINSLRAEDTAVYYCARTFPYFDYWGQGTLVTVSS
VL: QSVLTQPPSASGTPGERVTISCSSSSSNIGSNYVNWYQQLPGTAPKLLIYDNSQRPSGVPDRFSGSKSGTSASLAISGLRSEDEADYYCGSWDDSLSGYVFGGGTKLTVL
notes: HA-tagged scFv
For the molecule B9, the binding result in experiment [3] was “no binding”.

The record behind these values is patent US20260028400A1 (AIMED BIO, published 2026).
